For this assay, the target named is T1, human amylin receptor (amylin 3(a) receptor: human calcitonin receptor with RAMP-3) (human, UniProt P30988 25-474; O60896 24-148).
T1 construct: whole, on cells; also called hAmylin-R; hAmylinR
T1 sequence (looked up) 1: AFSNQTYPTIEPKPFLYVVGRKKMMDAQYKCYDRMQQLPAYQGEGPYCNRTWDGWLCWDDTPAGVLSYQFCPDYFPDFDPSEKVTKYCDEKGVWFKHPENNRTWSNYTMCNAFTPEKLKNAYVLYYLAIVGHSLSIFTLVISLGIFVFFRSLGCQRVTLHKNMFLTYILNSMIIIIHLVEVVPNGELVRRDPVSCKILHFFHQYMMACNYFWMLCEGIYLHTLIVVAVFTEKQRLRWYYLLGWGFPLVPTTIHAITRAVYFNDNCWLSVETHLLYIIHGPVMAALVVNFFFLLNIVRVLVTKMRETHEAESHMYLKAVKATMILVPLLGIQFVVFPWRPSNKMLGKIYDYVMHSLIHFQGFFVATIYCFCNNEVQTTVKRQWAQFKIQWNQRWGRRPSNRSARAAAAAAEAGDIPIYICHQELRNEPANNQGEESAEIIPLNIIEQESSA
T1 sequence (looked up) 2: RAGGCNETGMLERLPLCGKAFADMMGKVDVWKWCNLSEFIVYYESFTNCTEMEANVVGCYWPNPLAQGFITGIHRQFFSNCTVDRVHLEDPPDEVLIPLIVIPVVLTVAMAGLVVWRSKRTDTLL
Kind of assay: SPA displacement of 125I-rat amylin, hAmylin 3(a) receptor membranes. The method, boiled down:
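One-site competition analysis of SPA counts yielded IC₅₀ as a measure of affinity. Membranes were at 35 ng/μL final; incubation was 120 min at 25° C, pH 7.4.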
For orientation: In a radioligand displacement assay an active substance lowers the binding of a labelled ligand.

Numbered stars: 1 amine (or outer) side, 2 acyl side, 3 side chain; on linkers, the order of the positions; unused ones are H or OH. Bridge positions count the residues as written; N and C are the ends. Side chains are listed from the residue outwards. Ends that are not written are not given here. * marks the point of attachment. C20 diacid = O=C(O)CCCCCCCCCCCCCCCCCCC(=O)*; γGlu = O=C(O)[C@H](CCC(=O)[*:2])N[*:1]; AEEA = NCCOCCOCC(=O)O

B1: N^ε1-[2-[2-[2-[[(4S)-4-carboxy-4-(19-carboxynonadecanoylamino)butanoyl]amino]ethoxy]ethoxy]acetyl]-[Lys14,Arg17,Pro21,Pro27,Pro31]-h-amylin (peptide)
peptide: K([AEEA-γGlu-C20 diacid])CNTATCATQRLAKFLRHSSPNFGAIPSSTPVGSNTY-NH2
modifications: disulfide 2-7; N-terminus assumed
SMILES: CC[C@H](C)[C@H](NC(=O)[C@H](C)NC(=O)CNC(=O)[C@H](Cc1ccccc1)NC(=O)[C@H](CC(N)=O)NC(=O)[C@@H]1CCCN1C(=O)[C@H](CO)NC(=O)[C@H](CO)NC(=O)[C@H](Cc1c[nH]cn1)NC(=O)[C@H](CCCNC(=N)N)NC(=O)[C@H](CC(C)C)NC(=O)[C@H](Cc1ccccc1)NC(=O)[C@H](CCCCN)NC(=O)[C@H](C)NC(=O)[C@H](CC(C)C)NC(=O)[C@H](CCCNC(=N)N)NC(=O)[C@H](CCC(N)=O)NC(=O)[C@@H](NC(=O)[C@H](C)NC(=O)[C@@H]1CSSC[C@H](NC(=O)[C@@H](N)CCCCNC(=O)COCCOCCNC(=O)CC[C@H](NC(=O)CCCCCCCCCCCCCCCCCCC(=O)O)C(=O)O)C(=O)N[C@@H](CC(N)=O)C(=O)N[C@@H]([C@@H](C)O)C(=O)N[C@@H](C)C(=O)N[C@@H]([C@@H](C)O)C(=O)N1)[C@@H](C)O)C(=O)N1CCC[C@H]1C(=O)N[C@@H](CO)C(=O)N[C@@H](CO)C(=O)N[C@H](C(=O)N1CCC[C@H]1C(=O)N[C@H](C(=O)NCC(=O)N[C@@H](CO)C(=O)N[C@@H](CC(N)=O)C(=O)N[C@H](C(=O)N[C@@H](Cc1ccc(O)cc1)C(N)=O)[C@@H](C)O)C(C)C)[C@@H](C)O
notes: also called 74; compound 74
By IC50 is commonly meant the midpoint of a concentration-inhibition curve. Take B1: the IC50 amounted to 791 pM.

B2: N^ε1-[(4S)-4-carboxy-4-(19-carboxynonadecanoylamino)butanoyl]-[Ala14,Arg17,Pro21,Pro27,His34]-h-amylin (peptide)
peptide: K([γGlu-C20 diacid])CNTATCATQRLAAFLRHSSPNFGAIPSSTNVGHNTY-NH2
modifications: disulfide 2-7; N-terminus assumed
SMILES: CC[C@H](C)[C@H](NC(=O)[C@H](C)NC(=O)CNC(=O)[C@H](Cc1ccccc1)NC(=O)[C@H](CC(N)=O)NC(=O)[C@@H]1CCCN1C(=O)[C@H](CO)NC(=O)[C@H](CO)NC(=O)[C@H](Cc1c[nH]cn1)NC(=O)[C@H](CCCNC(=N)N)NC(=O)[C@H](CC(C)C)NC(=O)[C@H](Cc1ccccc1)NC(=O)[C@H](C)NC(=O)[C@H](C)NC(=O)[C@H](CC(C)C)NC(=O)[C@H](CCCNC(=N)N)NC(=O)[C@H](CCC(N)=O)NC(=O)[C@@H](NC(=O)[C@H](C)NC(=O)[C@@H]1CSSC[C@H](NC(=O)[C@@H](N)CCCCNC(=O)CC[C@H](NC(=O)CCCCCCCCCCCCCCCCCCC(=O)O)C(=O)O)C(=O)N[C@@H](CC(N)=O)C(=O)N[C@@H]([C@@H](C)O)C(=O)N[C@@H](C)C(=O)N[C@@H]([C@@H](C)O)C(=O)N1)[C@@H](C)O)C(=O)N1CCC[C@H]1C(=O)N[C@@H](CO)C(=O)N[C@@H](CO)C(=O)N[C@H](C(=O)N[C@@H](CC(N)=O)C(=O)N[C@H](C(=O)NCC(=O)N[C@@H](Cc1c[nH]cn1)C(=O)N[C@@H](CC(N)=O)C(=O)N[C@H](C(=O)N[C@@H](Cc1ccc(O)cc1)C(N)=O)[C@@H](C)O)C(C)C)[C@@H](C)O
notes: also called 93; compound 93
For the molecule B2, the IC50 came to 176 pM.

B3: N^ε1-[2-[2-[2-[[(4S)-4-carboxy-4-(19-carboxynonadecanoylamino)butanoyl]amino]ethoxy]ethoxy]acetyl]-[Ser14,Arg17,Pro21,Pro27,Pro31]-h-amylin (peptide)
peptide: K([AEEA-γGlu-C20 diacid])CNTATCATQRLASFLRHSSPNFGAIPSSTPVGSNTY-NH2
modifications: disulfide 2-7; N-terminus assumed
SMILES: CC[C@H](C)[C@H](NC(=O)[C@H](C)NC(=O)CNC(=O)[C@H](Cc1ccccc1)NC(=O)[C@H](CC(N)=O)NC(=O)[C@@H]1CCCN1C(=O)[C@H](CO)NC(=O)[C@H](CO)NC(=O)[C@H](Cc1c[nH]cn1)NC(=O)[C@H](CCCNC(=N)N)NC(=O)[C@H](CC(C)C)NC(=O)[C@H](Cc1ccccc1)NC(=O)[C@H](CO)NC(=O)[C@H](C)NC(=O)[C@H](CC(C)C)NC(=O)[C@H](CCCNC(=N)N)NC(=O)[C@H](CCC(N)=O)NC(=O)[C@@H](NC(=O)[C@H](C)NC(=O)[C@@H]1CSSC[C@H](NC(=O)[C@@H](N)CCCCNC(=O)COCCOCCNC(=O)CC[C@H](NC(=O)CCCCCCCCCCCCCCCCCCC(=O)O)C(=O)O)C(=O)N[C@@H](CC(N)=O)C(=O)N[C@@H]([C@@H](C)O)C(=O)N[C@@H](C)C(=O)N[C@@H]([C@@H](C)O)C(=O)N1)[C@@H](C)O)C(=O)N1CCC[C@H]1C(=O)N[C@@H](CO)C(=O)N[C@@H](CO)C(=O)N[C@H](C(=O)N1CCC[C@H]1C(=O)N[C@H](C(=O)NCC(=O)N[C@@H](CO)C(=O)N[C@@H](CC(N)=O)C(=O)N[C@H](C(=O)N[C@@H](Cc1ccc(O)cc1)C(N)=O)[C@@H](C)O)C(C)C)[C@@H](C)O
notes: also called 73; compound 73
For B3, the IC50 came out at 104 pM.

B4: N^ε1-[(4S)-4-carboxy-4-(19-carboxynonadecanoylamino)butanoyl]-[Ala14,Arg17,Pro21,Pro27,Pro34]-h-amylin (peptide)
peptide: K([γGlu-C20 diacid])CNTATCATQRLAAFLRHSSPNFGAIPSSTNVGPNTY-NH2
modifications: disulfide 2-7; N-terminus assumed
SMILES: CC[C@H](C)[C@H](NC(=O)[C@H](C)NC(=O)CNC(=O)[C@H](Cc1ccccc1)NC(=O)[C@H](CC(N)=O)NC(=O)[C@@H]1CCCN1C(=O)[C@H](CO)NC(=O)[C@H](CO)NC(=O)[C@H](Cc1c[nH]cn1)NC(=O)[C@H](CCCNC(=N)N)NC(=O)[C@H](CC(C)C)NC(=O)[C@H](Cc1ccccc1)NC(=O)[C@H](C)NC(=O)[C@H](C)NC(=O)[C@H](CC(C)C)NC(=O)[C@H](CCCNC(=N)N)NC(=O)[C@H](CCC(N)=O)NC(=O)[C@@H](NC(=O)[C@H](C)NC(=O)[C@@H]1CSSC[C@H](NC(=O)[C@@H](N)CCCCNC(=O)CC[C@H](NC(=O)CCCCCCCCCCCCCCCCCCC(=O)O)C(=O)O)C(=O)N[C@@H](CC(N)=O)C(=O)N[C@@H]([C@@H](C)O)C(=O)N[C@@H](C)C(=O)N[C@@H]([C@@H](C)O)C(=O)N1)[C@@H](C)O)C(=O)N1CCC[C@H]1C(=O)N[C@@H](CO)C(=O)N[C@@H](CO)C(=O)N[C@H](C(=O)N[C@@H](CC(N)=O)C(=O)N[C@H](C(=O)NCC(=O)N1CCC[C@H]1C(=O)N[C@@H](CC(N)=O)C(=O)N[C@H](C(=O)N[C@@H](Cc1ccc(O)cc1)C(N)=O)[C@@H](C)O)C(C)C)[C@@H](C)O
notes: also called 94; compound 94
B4: the IC50 was 148 pM.

B5: N^ε1-[2-[2-[2-[[(4S)-4-carboxy-4-(19-carboxynonadecanoylamino)butanoyl]amino]ethoxy]ethoxy]acetyl]-[Thr14,Arg17,Pro21,Pro27,Pro31]-h-amylin (peptide)
peptide: K([AEEA-γGlu-C20 diacid])CNTATCATQRLATFLRHSSPNFGAIPSSTPVGSNTY-NH2
modifications: disulfide 2-7; N-terminus assumed
SMILES: CC[C@H](C)[C@H](NC(=O)[C@H](C)NC(=O)CNC(=O)[C@H](Cc1ccccc1)NC(=O)[C@H](CC(N)=O)NC(=O)[C@@H]1CCCN1C(=O)[C@H](CO)NC(=O)[C@H](CO)NC(=O)[C@H](Cc1c[nH]cn1)NC(=O)[C@H](CCCNC(=N)N)NC(=O)[C@H](CC(C)C)NC(=O)[C@H](Cc1ccccc1)NC(=O)[C@@H](NC(=O)[C@H](C)NC(=O)[C@H](CC(C)C)NC(=O)[C@H](CCCNC(=N)N)NC(=O)[C@H](CCC(N)=O)NC(=O)[C@@H](NC(=O)[C@H](C)NC(=O)[C@@H]1CSSC[C@H](NC(=O)[C@@H](N)CCCCNC(=O)COCCOCCNC(=O)CC[C@H](NC(=O)CCCCCCCCCCCCCCCCCCC(=O)O)C(=O)O)C(=O)N[C@@H](CC(N)=O)C(=O)N[C@@H]([C@@H](C)O)C(=O)N[C@@H](C)C(=O)N[C@@H]([C@@H](C)O)C(=O)N1)[C@@H](C)O)[C@@H](C)O)C(=O)N1CCC[C@H]1C(=O)N[C@@H](CO)C(=O)N[C@@H](CO)C(=O)N[C@H](C(=O)N1CCC[C@H]1C(=O)N[C@H](C(=O)NCC(=O)N[C@@H](CO)C(=O)N[C@@H](CC(N)=O)C(=O)N[C@H](C(=O)N[C@@H](Cc1ccc(O)cc1)C(N)=O)[C@@H](C)O)C(C)C)[C@@H](C)O
notes: also called 75; compound 75
As to B5, the IC50 is 666 pM.

B6: N^ε1-[(4S)-4-carboxy-4-(19-carboxynonadecanoylamino)butanoyl]-[Arg14,Arg17,Pro21,Pro27,Pro31]-h-amylin (peptide)
peptide: K([γGlu-C20 diacid])CNTATCATQRLARFLRHSSPNFGAIPSSTPVGSNTY-NH2
modifications: disulfide 2-7; N-terminus assumed
SMILES: CC[C@H](C)[C@H](NC(=O)[C@H](C)NC(=O)CNC(=O)[C@H](Cc1ccccc1)NC(=O)[C@H](CC(N)=O)NC(=O)[C@@H]1CCCN1C(=O)[C@H](CO)NC(=O)[C@H](CO)NC(=O)[C@H](Cc1c[nH]cn1)NC(=O)[C@H](CCCNC(=N)N)NC(=O)[C@H](CC(C)C)NC(=O)[C@H](Cc1ccccc1)NC(=O)[C@H](CCCNC(=N)N)NC(=O)[C@H](C)NC(=O)[C@H](CC(C)C)NC(=O)[C@H](CCCNC(=N)N)NC(=O)[C@H](CCC(N)=O)NC(=O)[C@@H](NC(=O)[C@H](C)NC(=O)[C@@H]1CSSC[C@H](NC(=O)[C@@H](N)CCCCNC(=O)CC[C@H](NC(=O)CCCCCCCCCCCCCCCCCCC(=O)O)C(=O)O)C(=O)N[C@@H](CC(N)=O)C(=O)N[C@@H]([C@@H](C)O)C(=O)N[C@@H](C)C(=O)N[C@@H]([C@@H](C)O)C(=O)N1)[C@@H](C)O)C(=O)N1CCC[C@H]1C(=O)N[C@@H](CO)C(=O)N[C@@H](CO)C(=O)N[C@H](C(=O)N1CCC[C@H]1C(=O)N[C@H](C(=O)NCC(=O)N[C@@H](CO)C(=O)N[C@@H](CC(N)=O)C(=O)N[C@H](C(=O)N[C@@H](Cc1ccc(O)cc1)C(N)=O)[C@@H](C)O)C(C)C)[C@@H](C)O
notes: also called 63; compound 63
B6: the IC50 amounted to 825 pM.

For the origin of these results see US20140087995A1 (published 2014).
